Reference: patent US20260234261A1 (published 2026)
Like-named read-outs stand apart in the source and are kept apart here. Values belong to the binder of their own block, whether it stands above or below them.

Key:
Test in all cases: FACS binding
[1] = target: T1, human CTLA4 and human CCR8 co-expressed on CHOS-hCTLA4/hCCR8 double-positive cells (human, UniProt P16410 36-223; P51685 1-355)
[2] = target: T2, human CTLA4 (overexpressed on CHOS-hCTLA4 cells) (human, UniProt P16410 36-223)
[3] = target: T1, human CTLA4 and human CCR8 co-expressed …; remark: listed apart in the source
[4] = target: T1, human CTLA4 and human CCR8 co-expressed …; remark: listed apart in the source
[5] = target: T3, human CCR8 (overexpressed on CHOS-hCCR8 cells) (human, UniProt P51685 1-355)
[6] = target: T3, human CCR8 (overexpressed on CHOS-hCCR8 …); remark: listed apart in the source
[7] = target: T2, human CTLA4 (overexpressed on …); remark: listed apart in the source
[8] = target: T3, human CCR8 (overexpressed on CHOS-hCCR8 …); remark: listed apart in the source
[9] = target: T2, human CTLA4 (overexpressed on …); remark: listed apart in the source
[10] = target: T1, human CTLA4 and human CCR8 co-expressed …; remark: listed apart in the source
[11] = target: T3, human CCR8 (overexpressed on CHOS-hCCR8 …); remark: listed apart in the source

T1 sequence (P16410 36-223, chain 1 of 2): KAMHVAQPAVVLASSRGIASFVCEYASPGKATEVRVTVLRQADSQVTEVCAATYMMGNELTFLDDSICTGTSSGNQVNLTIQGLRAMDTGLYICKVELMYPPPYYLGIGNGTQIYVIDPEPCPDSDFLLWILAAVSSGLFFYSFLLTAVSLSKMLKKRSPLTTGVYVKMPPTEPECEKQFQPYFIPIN
T1 sequence (P51685 whole entry, chain 2 of 2): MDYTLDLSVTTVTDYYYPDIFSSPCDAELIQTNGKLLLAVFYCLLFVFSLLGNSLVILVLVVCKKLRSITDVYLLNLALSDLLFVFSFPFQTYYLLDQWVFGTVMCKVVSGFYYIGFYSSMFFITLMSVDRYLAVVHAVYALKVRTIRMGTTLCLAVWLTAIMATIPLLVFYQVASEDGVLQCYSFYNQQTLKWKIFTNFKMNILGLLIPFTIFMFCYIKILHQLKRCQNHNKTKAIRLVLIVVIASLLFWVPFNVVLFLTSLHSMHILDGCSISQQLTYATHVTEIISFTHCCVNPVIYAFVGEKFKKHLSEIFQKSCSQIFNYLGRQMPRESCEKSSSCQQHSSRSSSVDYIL
T2 sequence (P16410 36-223): as the sequence (P16410 36-223, chain 1 of 2) above
T3 sequence (P51685 whole entry): as the sequence (P51685 whole entry, chain 2 of 2) above

B2: Anti-CTLA4(ip-05)-1 (antibody, V domains shown)
VH: EVQLVESGGGVVQPGRSLRLSCAASGFTFSSYTMHWVRQAPGKGLEWVTFISEDGNNKYYADSVKGRFTISRDNSKNTLYLQMNSLRAEDTAIYYCARTGWLGPFDYWGQGTLVTVSS
VL: not shown
EC50 [2]: 3.6 nM
EC50 [3]: 11.8 nM

B3: Anti-CCR8(ADI68741-R2-21-DA)-Afu (antibody, V domains shown)
VH: EVQLVQSGAEVKKPGASVKVSCKASGYTFTSYYMHWVRQAPGQGLEWMGIINPMTGSASHAQKFQGRVTMTRDTSTSTVYMELSSLRSEDTAVYYCVRDAAARHKYFAFWGRGTLVTVSS
VL: EIVLTQSPATLSLSPGERATLSCRASQSVSSYLAWYQQKPGQAPRLLIYDASNRATGIPARFSGSGSGTDFTLTISSLEPEDFAVYYCQQYSAWPLTFGGGTKVEIKR
EC50 [4]: 22.2 nM

B4: Anti-CCR8(ADI68741)-1 (antibody, V domains shown)
VH: EVQLVQSGAEVKKPGASVKVSCKASGYTFTSYYMHWVRQAPGQGLEWMGIINPGTGSTSHAQKFQGRVTMTRDTSTSTVYMELSSLRSEDTAVYYCARDGAFRHKYFDLWGRGTLVTVSS
VL: EIVLTQSPATLSLSPGERATLSCRASQSVSSYLAWYQQKPGQAPRLLIYDASNRATGIPARFSGSGSGTDFTLTISSLEPEDFAVYYCQQYSAWPLTFGGGTKVEIKR
EC50 [1]: 0.194 nM
EC50 [5]: 0.215 nM
EC50 [3]: 0.351 nM
EC50 [6]: 0.743 nM

B8: Anti-CCR8(ADI68741)-1 Afu (antibody, V domains shown)
VH: EVQLVQSGAEVKKPGASVKVSCKASGYTFTSYYMHWVRQAPGQGLEWMGIINPGTGSTSHAQKFQGRVTMTRDTSTSTVYMELSSLRSEDTAVYYCARDGAFRHKYFDLWGRGTLVTVSS
VL: EIVLTQSPATLSLSPGERATLSCRASQSVSSYLAWYQQKPGQAPRLLIYDASNRATGIPARFSGSGSGTDFTLTISSLEPEDFAVYYCQQYSAWPLTFGGGTKVEIKR
EC50 [4]: 0.595 nM

Continued, values first:

EC50 [1]: 361 nM
B1: Anti-CTLA4(ip-0508) (antibody, V domains shown)
VH: EVQLVESGGGVVQPGRSLRLSCAASGFTFSSYTMHWVRQAPGKGLEWVTFISEDGNNKYYADSVKGRFTISRDNSKNTLYLQMNSLRAEDTAIYYCARTGWLGPEDYWGQGTLVTVSS
VL: not shown

EC50 [7]: 3.98 nM
EC50 [4]: 98.2 nM
EC50 [8]: 51.7 nM
B5: Anti-CTLA4(ip-05)-1 Afu (antibody, V domains shown)
VH: EVQLVESGGGVVQPGRSLRLSCAASGFTFSSYTMHWVRQAPGKGLEWVTFISEDGNNKYYADSVKGRFTISRDNSKNTLYLQMNSLRAEDTAIYYCARTGWLGPFDYWGQGTLVTVSS
VL: not shown

EC50 [9]: 28.2 nM
EC50 [10]: 11.3 nM
EC50 [11]: 6.55 nM
B6: Anti-CTLA4(ip-05)×CCR8-6 (bispecific antibody)
heavy 1: not shown
light 1: not shown
heavy 2: not shown
light 2: EIVLTQSPATLSLSPGERATLSCRASQSVSSYLAWYQQKPGQAPRLLIYDASNRATGIPARFSGSGSGTDFTLTISSLEPEDFAVYYCQQYSAWPLTFGGGTKVEIKRTVAAPSVFIFPPSDEELKSGTASVQCLLNNFYPREAKVQWKVDNALQSGNSQESVTEQDSKDSTYSLSSELTLSKADYEKHKVYACEVTHQGLSSPVTKSFNRGEC

EC50 [9]: 77.4 nM
EC50 [10]: 20.8 nM
EC50 [11]: 43.9 nM
B7: Anti-CTLA4(ip-05)×CCR8-4 (bispecific antibody)
heavy 1: not shown
light 1: not shown
heavy 2: not shown
light 2: EIVLTQSPATLSLSPGERATLSCRASQSVSSYLAWYQQKPGQAPRLLIYDASNRATGIPARFSGSGSGTDFTLTISSLEPEDFAVYYCQQYSAWPLTFGGGTKVEIKRTVAAPSVFIFPPSDEQLKSGRASVVCLLNNFYPREAKVQWKVDNALQSGNSQESVTEQDSKDSTYSLSSRLQLSKADYEKHKVYACEVTHQGLSSPVTKSFNRGEC

EC50 [7]: 0.521 nM
EC50 [4]: 0.623 nM
B9: ONC-392 Analog (antibody, V domains shown)
VH: QVQLQESGPGLVKPSETLSLTCTVSGFSLTSYGLSWIRQPPGKGLEWIGYIWYDGNTNFHSPLKSRVTISVDTSKNQFSLKLSSVTAADTAVYYCAKTEGHYYGSNYGYYALDYWGQGTLVTVSS
VL: DIQMTQSPSSLSASVGDRVTITCRASENIYSNLAWYQQKQGKAPKLLLYAATNLQDGVPSRFSGSGSGTDYTLTISSLQPEDFATYFCQHLWGTPYTFGQGTKLEIKR
